Data reported in patent publication US20210284725A1 (Genentech, published 2021).
Substitutions are numbered along the chain they refer to.

Columns and labels:
cyno IL-33 = target: T1, cyno IL-33 (cynomolgus monkey, UniProt A0A2K5W3I1 112-269); assay: cell-based or functional assay
T1 sequence: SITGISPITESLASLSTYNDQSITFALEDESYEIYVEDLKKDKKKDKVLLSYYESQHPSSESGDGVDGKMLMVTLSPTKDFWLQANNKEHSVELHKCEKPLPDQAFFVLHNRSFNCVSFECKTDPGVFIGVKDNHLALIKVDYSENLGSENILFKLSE

human IL-33 [1] = target: T2, human IL-33 (human, UniProt O95760 112-270, limits assumed); assay: cell-based or functional assay
T2 sequence (looked up): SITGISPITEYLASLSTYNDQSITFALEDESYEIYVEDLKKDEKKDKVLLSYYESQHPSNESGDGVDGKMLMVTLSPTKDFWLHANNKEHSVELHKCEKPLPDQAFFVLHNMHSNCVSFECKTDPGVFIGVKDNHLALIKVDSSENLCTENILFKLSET

rat IL-33 (His-tagged) = target: T3, rat IL-33 (His-tagged) (rat, UniProt Q66H70 109-264, limits assumed); assay: SPR Biacore T200, antibody captured on anti-rat Fc, His-tagged IL-33 analyte, 25 C, 1:1 Langmuir
T3 construct: not shown: His tag
T3 sequence (looked up): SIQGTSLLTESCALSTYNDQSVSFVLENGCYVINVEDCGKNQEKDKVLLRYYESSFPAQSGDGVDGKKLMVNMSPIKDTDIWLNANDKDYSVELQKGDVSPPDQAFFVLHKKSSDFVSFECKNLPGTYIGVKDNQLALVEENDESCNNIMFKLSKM
Procedure: (§1) The binding kinetics of top anti-IL-33 antibodies were measured using SPR on a BIACORE® T200 instrument (GE Healthcare). A CM5 Series S sensorchip was coated with anti-rat Fc (Jackson) to create a capture surface. Antibody binding was measured to human, cyno, rat, mouse and oxidized IL-33 (His-tagged) using a concentration series starting with 50 nM with 1:3 dilutions. Sensorgrams for binding of cytokine were recorded using an injection time of 2 min with a flow rate of 30 μl/min, at a temperature of 25° C., and with a running buffer of 10 mM HEPES, pH 7.4, 150 mM NaCl, 3 mM EDTA, and 0.005% TWEEN®20. After injection, disassociation of the IL-33 from the antibody was monitored for 10 min in running buffer. The surface was regenerated between binding cycles with a 30μ injection of 10 mM glycine HCl pH 1.7. After subtraction of a blank which contained running buffer only, sensorgrams observed for cytokine binding to anti-IL-33 antibody were analyzed using a 1:1 Langmuir binding model with software supplied by the manufacturer to calculate the kinetics and binding constants.

mouse IL-33 (His-tagged) = target: T4, mouse IL-33 (His-tagged) (mouse, UniProt Q8BVZ5 109-266); assay: as above
T4 construct: also called murine IL-33; not shown: His tag
T4 sequence (looked up): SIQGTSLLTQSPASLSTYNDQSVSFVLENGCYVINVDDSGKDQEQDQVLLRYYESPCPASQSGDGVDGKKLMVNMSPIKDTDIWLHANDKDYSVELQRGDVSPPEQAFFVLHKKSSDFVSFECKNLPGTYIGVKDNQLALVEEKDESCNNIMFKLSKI
Procedure: as §1

human IL-33 (His-tagged) [2] = target: T5, human IL-33 (His-tagged) (human, UniProt O95760 112-270, limits assumed); assay: as above
T5 construct: not shown: His tag
T5 sequence (looked up): T2 sequence (looked up)
Procedure: as §1

cyno IL-33 (His-tagged) [3] = target: T6, cyno IL-33 (His-tagged) (cynomolgus monkey, UniProt A0A2K5W3I1 112-269); assay: as above
T6 construct: not shown: His tag
T6 sequence: T1 sequence
Procedure: as §1

human IL-33 (His-tagged) [4] = target: T5, human IL-33 (His-tagged); assay: SPR Biacore T200, IgG captured on protein A chip, His-tagged human IL-33 analyte, 25 C, n=2; column head prints 'KD (nM)' but the E-notation cells are in M, unit corrected to M
Procedure: A protein A sensorchip (GE Healthcare) was used following manufacturer provided protocols to capture humanized anti-IL-33 antibodies using a BIACORE® T200 instrument (GE). Antibody binding was measured to human IL-33 (His-tagged) using multi-cycle kinetics. Sensorgrams for binding of IL-33 were recorded using an injection time of 2 min with a flow rate of 30 μl/min, at a temperature of 25° C., and with a running buffer of 10 mM HEPES, pH 7.4, 150 mM NaCl, 3 mM EDTA, and 0.005% TWEEN620. After injection, disassociation of IL-33 from the antibody was monitored for 10 min in running buffer. The surface was regenerated between binding cycles with a 30 μl injection of 10 mM Glycine HCl pH 1.5. After subtraction of a blank which contained running buffer only, sensorgrams observed for cytokine binding to anti-IL-33 antibody were analyzed using a 1:1 Langmuir binding model with software supplied by the manufacturer to calculate the kinetics and binding constants.

human IL-33 [5] = target: T2, human IL-33; assay: cell-based or functional assay; remark: listed apart in the source
human IL-33 (His-tagged) [6] = target: T5, human IL-33 (His-tagged); assay: SPR Biacore 8k, Fab amine-coupled to CM5 chip, His-tagged IL-33 analyte, 25 C, 1:1 Langmuir
Procedure: (§2) The binding kinetics of the 1E1v8 Fab were measured using SPR on a BIACORE® 8k instrument (GE Healthcare). 1E1v8 Fab was directly immobilized on 4 different flow cells of a CM5 Series S sensorchip at low density using amine coupling. Antibody fragment binding was measured to human and cyno IL-33 (His-tagged) using a concentration series starting with 50 nM with 1:3 dilutions. Sensorgrams for binding of IL-33 were recorded using an injection time of 2 min with a flow rate of 100 μl/min, at a temperature of 25° C. or 35° C., and with a running buffer of 10 mM HEPES, pH 7.4, 150 mM NaCl, 3 mM EDTA, and 0.005% TWEEN®20. After injection, disassociation of the IL-33 from the antibody was monitored for 30 min in running buffer. The surface was regenerated between binding cycles with a 30 μl injection of 10 mM glycine HCl pH 1.7. After subtraction of a blank which contained running buffer only, sensorgrams observed for cytokine binding to anti-IL-33 antibody were analyzed using a 1:1 Langmuir binding model with software supplied by the manufacturer to calculate the kinetics and binding constants.

cyno IL-33 (His-tagged) [7] = target: T6, cyno IL-33 (His-tagged); assay: as above
Procedure: as §2

human IL-33 (His-tagged) [8] = target: T5, human IL-33 (His-tagged); assay: SPR Biacore 8k, Fab amine-coupled to CM5 chip, His-tagged IL-33 analyte, 35 C, 1:1 Langmuir
Procedure: as §2

cyno IL-33 (His-tagged) [9] = target: T6, cyno IL-33 (His-tagged); assay: as above
Procedure: as §2

B1: rat anti-human IL-33 hybridoma antibody 1E1 (antibody, V domains shown)
VH: EVQLVESGGGLVQPGTSLKLSCLASGFTFNNYWMTWIRQAPGKGLEWIASITYTGGGTYYPDSVKGRFTISRDDAKSTLYLQMNSLRSEDTATYYCTRANYYYNTYGGFPYWGQGTLVTVSS
VL: DIQMTQSPASLSASLGETVSIECLASEGFSNDLAWYQQKSGKSPQLLIYAASRLQDGVPSRFSGSGSGTRFSLKISGMQPEDEADYFCQQGSKYPLTFGSGTKLEIK
notes: Purified rat hybridoma IgG; also called clone 1E1; hybridoma derived clone 1E1
B1 was tested, and the “IC50 (M), IL-33 neutralization activity, HEK-BLUE IL-33 cells (SEAP reporter), cyno IL-33 at 300 pM” value (cyno IL-33) was 1.6e-10 M, the “IC50 (M), IL-33 neutralization activity, HEK-BLUE IL-33 cells (SEAP reporter), human IL-33 at 160 pM” value (human IL-33 [1]) was 3.6e-11 M and the Kd (rat IL-33 (His-tagged)) was 1.6 nM. The koff (rat IL-33 (His-tagged)) was 0.000219 s⁻¹, the kon (rat IL-33 (His-tagged)) was 140000 M⁻¹ s⁻¹ and the Kd (mouse IL-33 (His-tagged)) was 37.4 nM. It also gave a koff (mouse IL-33 (His-tagged)) of 0.00213 s⁻¹, a kon (mouse IL-33 (His-tagged)) of 56800 M⁻¹ s⁻¹ and a Kd (human IL-33 (His-tagged) [2]) of 0.021 nM. For the same binder, the koff (human IL-33 (His-tagged) [2]) was 2.28e-05 s⁻¹, the kon (human IL-33 (His-tagged) [2]) was 1.08e+06 M⁻¹ s⁻¹ and the Kd (cyno IL-33 (His-tagged) [3]) was 0.0392 nM. It also gave a koff (cyno IL-33 (His-tagged) [3]) of 2.24e-05 s⁻¹ and a kon (cyno IL-33 (His-tagged) [3]) of 570000 M⁻¹ s⁻¹.

B2: ch1E1 (antibody, V domains shown)
VH: B1 VH
VL: DIQMTQSPASLSASLGETVSIECLASEGFSNDLAWYQQKSGKSPQLLIYAASRLQDGVPSRFSGSGSGTRFSLKISGMQPEDEADYFCQQGSKYPLTFGSGTKLEIKR
With B2 the Kd (human IL-33 (His-tagged) [4]) was 0.148 nM and the “IC50 (M), IL-33 neutralization activity, HEK-BLUE IL-33 cells, human IL-33 at 160 pM” value (human IL-33 [5]) was 2.9e-11 M.

B3: 1E1v20 (antibody, human IgG1, V domains shown)
VH: B1 VH with T16G, K19R, L23A, I37V, I48V, T78S, S88A, T93V
VL: DIQMTQSPSSLSASVGDRVTITCLASEGFSNDLAWYQQKPGKAPKSLIYAASRLQDGVPSRFSGSGSGTDFTLTISSLQPEDFATYYCQQGSKYPLTFGGGTKVEIK
notes: Humanized 1E1 variant, human IgG1 backbone, expressed in Expi293F
B3 was tested, and the Kd (human IL-33 (His-tagged) [4]) was 0.128 nM and the “IC50 (M), IL-33 neutralization activity, HEK-BLUE IL-33 cells, human IL-33 at 160 pM” value (human IL-33 [5]) was 3.44e-11 M.

B4: 1E1v21 (antibody, human IgG1, V domains shown)
VH: B1 VH with T16G, K19R, L23A, I37V, I48V, S77N, T78S, S88A, T93V
VL: B3 VL
notes: as for B3
In the case of B4, the Kd (human IL-33 (His-tagged) [4]) is reported as 0.155 nM and the “IC50 (M), IL-33 neutralization activity, HEK-BLUE IL-33 cells, human IL-33 at 160 pM” value (human IL-33 [5]) is reported as 3.1e-11 M.

B5: 1E1v13 (antibody, human IgG1, V domains shown)
VH: B1 VH with T16G, K19R, L23A, I37V, T78S, S88A, T93V
VL: B3 VL with Y87F
notes: as for B3
B5 was tested, and the Kd (human IL-33 (His-tagged) [4]) was 0.14 nM and the “IC50 (M), IL-33 neutralization activity, HEK-BLUE IL-33 cells, human IL-33 at 160 pM” value (human IL-33 [5]) was 2.98e-11 M.

B6: 1E1v19 (antibody, human IgG1, V domains shown)
VH: B1 VH with T16G, K19R, L23A, T78S, S88A, T93V
VL: B3 VL
notes: as for B3
In the case of B6, the Kd (human IL-33 (His-tagged) [4]) is reported as 0.132 nM and the “IC50 (M), IL-33 neutralization activity, HEK-BLUE IL-33 cells, human IL-33 at 160 pM” value (human IL-33 [5]) is reported as 3.19e-11 M.

B7: 1E1v8 Fab (Fab, V domains shown)
VH: B1 VH with T16G, K19R, L23A, I48V, T78S, S88A, T93V
VL: B3 VL with A43S, S46L, Y87F
notes: also called 1E1v8 human Fab; anti-IL-33 1E1v8 Fab
B7 was tested, and the Kd (human IL-33 (His-tagged) [6]) was 0.0147 nM, the koff (human IL-33 (His-tagged) [6]) was 9.99e-06 s⁻¹ and the kon (human IL-33 (His-tagged) [6]) was 684000 M⁻¹ s⁻¹. For the same binder, the Kd (cyno IL-33 (His-tagged) [7]) was 0.0223 nM, the koff (cyno IL-33 (His-tagged) [7]) was 7.85e-06 s⁻¹ and the kon (cyno IL-33 (His-tagged) [7]) was 354000 M⁻¹ s⁻¹. For the same binder, the Kd (human IL-33 (His-tagged) [8]) was 0.0148 nM, the koff (human IL-33 (His-tagged) [8]) was 1.26e-05 s⁻¹ and the kon (human IL-33 (His-tagged) [8]) was 858000 M⁻¹ s⁻¹. For the same binder, the Kd (cyno IL-33 (His-tagged) [9]) was 0.0345 nM, the koff (cyno IL-33 (His-tagged) [9]) was 1.82e-05 s⁻¹ and the kon (cyno IL-33 (His-tagged) [9]) was 527000 M⁻¹ s⁻¹.
